Drawing on paper PMC3773400, “Intracellular Secretory Leukoprotease Inhibitor Modulates Inositol 1,4,5-Triphosphate Generation and Exerts an Anti-Inflammatory Effect on Neutrophils of Individuals with Cystic Fibrosis and Chronic Obstructive Pulmonary Disease” (BioMed Research International, 2013), this text covers Ki for one molecule.

For one assay, the target named is calpain 2 (UniProt P17655 20-700). Put plainly: enzyme inhibition kinetics (Calpain-Glo protease assay); cleavage of the calpain substrate Suc-LLVY-aminoluciferin, luminescence; calpastatin 0-80 nM, rhSLPI 0-640 nM; Ki by global curve fit in GraphPad Prism 4.03. As to conditions: both partners purified.
A further assay addresses calpain 1 (UniProt P07384 1-714). The assay is described as above. To be noted: both partners purified.

Sequence of calpain 1 (P07384 2-714, chain 1 of 2): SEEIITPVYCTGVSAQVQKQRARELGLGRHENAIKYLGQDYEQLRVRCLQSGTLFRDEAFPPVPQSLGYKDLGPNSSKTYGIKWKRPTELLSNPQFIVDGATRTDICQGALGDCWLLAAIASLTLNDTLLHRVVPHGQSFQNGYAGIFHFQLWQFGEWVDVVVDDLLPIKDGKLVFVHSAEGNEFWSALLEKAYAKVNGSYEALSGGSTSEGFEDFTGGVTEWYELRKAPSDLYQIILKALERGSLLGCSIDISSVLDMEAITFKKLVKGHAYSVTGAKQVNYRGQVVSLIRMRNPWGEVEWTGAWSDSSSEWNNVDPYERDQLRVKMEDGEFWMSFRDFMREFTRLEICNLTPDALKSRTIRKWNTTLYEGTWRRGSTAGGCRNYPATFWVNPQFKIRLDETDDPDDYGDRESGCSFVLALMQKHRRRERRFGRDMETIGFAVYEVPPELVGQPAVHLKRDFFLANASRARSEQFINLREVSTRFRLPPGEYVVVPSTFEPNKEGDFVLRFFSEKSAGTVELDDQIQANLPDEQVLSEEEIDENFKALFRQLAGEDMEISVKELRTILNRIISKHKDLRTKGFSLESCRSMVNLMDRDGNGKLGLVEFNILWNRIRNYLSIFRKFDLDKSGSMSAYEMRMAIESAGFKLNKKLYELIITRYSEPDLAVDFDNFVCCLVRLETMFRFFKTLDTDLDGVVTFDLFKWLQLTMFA
Sequence of calpain 1 (P04632 whole entry, chain 2 of 2, further chain): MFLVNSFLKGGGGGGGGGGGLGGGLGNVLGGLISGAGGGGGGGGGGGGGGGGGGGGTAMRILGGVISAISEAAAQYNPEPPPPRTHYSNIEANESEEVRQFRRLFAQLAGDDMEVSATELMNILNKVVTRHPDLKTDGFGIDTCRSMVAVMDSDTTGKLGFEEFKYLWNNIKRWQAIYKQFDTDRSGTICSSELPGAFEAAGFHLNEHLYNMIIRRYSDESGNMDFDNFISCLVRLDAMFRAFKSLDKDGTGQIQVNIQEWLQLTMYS

B1: calpastatin (natural protein)
chain: MNPTETKAIPVSQQMEGPHLPNKKKHKKQAVKTEPEKKSQSTKLSVVHEKKSQEGKPKEHTEPKSLPKQASDTGSNDAHNKKAVSRSAEQQPSEKSTEPKTKPQDMISAGGESVAGITAISGKPGDKKKEKKSLTPAVPVESKPDKPSGKSGMDAALDDLIDTLGGPEETEEENTTYTGPEVSDPMSSTYIEELGKREVTIPPKYRELLAKKEGITGPPADSSKPIGPDDAIDALSSDFTCGSPTAAGKKTEKEESTEVLKAQSAGTVRSAAPPQEKKRKVEKDTMSDQALEALSASLGTRQAEPELDLRSIKEVDEAKAKEEKLEKCGEDDETIPSEYRLKPATDKDGKPLLPEPEEKPKPRSESELIDELSEDFDRSECKEKPSKPTEKTEESKAAAPAPVSEAVCRTSMCSIQSAPPEPATLKGTVPDDAVEALADSLGKKEADPEDGKPVMDKVKEKAKEEDREKLGEKEETIPPDYRLEEVKDKDGKPLLPKESKEQLPPMSEDFLLDALSEDFSGPQNASSLKFEDAKLAAAISEVVSQTPASTTQAGAPPRDTSQSDKDLDDALDKLSDSLGQRQPDPDENKPMEDKVKEKAKAEHRDKLGERDDTIPPEYRHLLDDNGQDKPVKPPTKKSEDSKKPADDQDPIDALSGDLDSCPSTTETSQNTAKDKCKKAASSSKAPKNGGKAKDSAKTTEETSKPKDD
modifications: Paper names only 'calpastatin (endogenous calpain inhibitor)'. Supplier, species, isoform and limits are not stated. Full-length human canonical form is assumed; a commercial single inhibitory domain
By Ki is commonly meant the equilibrium dissociation constant of an inhibitor or competing ligand from its target. Turning to B1, the Ki was 1.55 nM with calpain 2 and 5.55 nM in the assay with calpain 1.
